According to patent publication US20130331552A1:

Target: recombinant influenza HA3-protein (from H3N2, Wyoming, March 2003, Sino Biological Inc.) (influenza H3N2, Wyoming, March 2003)
Test: SPR imaging (IBIS MX96), antibody captured on anti-human-IgG chip, HA3 injected at 1 µg/ml, global 1:1 fit

| Binder | Kd | koff | kon |
| --- | --- | --- | --- |
| AT10-004 mutant C (antibody, V domains shown) VH: RASQSVSRFLA VL: RASQSVSRFLA | 0.06 nM | 1e-06 s⁻¹ | 17000 M⁻¹ s⁻¹ |
| AT10-004 mutant B (antibody, V domains shown) VH: RASQSVSRYLA VL: RASQSVSRYLA | 0.05 nM | 1e-06 s⁻¹ | 19000 M⁻¹ s⁻¹ |
